We go through 1 molecule from patent US20260109758A1 (BIOSION, published 2026).

Experiment [1] addresses T1, recombinant human IL4Rα-his (human, UniProt P24394 26-231, limits assumed, biotin-labeled in the capture ELISA).
T1 construct: In-house made; not shown: His tag at the C-terminus
Briefly: dual-binding ELISA: coated human IL4Rα-his, antibody titrated, detection with biotin human TSLP-his and SA-HRP; signal needs both antigens bound. How it is done: For the dual-binding ELISA, 96-well ELISA plates were firstly coated with 100 μL 1 μg/mL human IL4Rα-his protein (IL4Rα of SEQ ID NO: 33 with His tag at C terminus, prepared in-house) in PBS overnight at 4° C. ELISA plates were washed 4 times with wash buffer (PBS+0.05% Tween-20, PBST) and then blocked with 200 μL/well blocking buffer (5% w/v non-fatty milk in PBST) for 2 hours at 37° C. […] ELISA plates were washed again and incubated with SA-HRP (100 μl/well) for 40 minutes at 37° C. After the final wash, 100 μL/well TMB (Innoreagents) was added. The reaction was stopped 15 minutes later at room temperature with 50 μL/well 1M H₂SO₄, and the absorbance was read on a microplate reader using dual wavelength mode with 450 nm for TMB and 630 nm as the reference wavelength. The OD (450-630) values were plotted against antibody concentration. Data was analyzed using Graphpad Prism and EC₅₀ values were reported.
In general terms: In an ELISA, binding on a coated surface is turned into a signal by an enzyme label.

In experiment [2] the target is T2, biotin-labeled human TSLP-Fc (human, biotin-labeled).
T2 construct: also called TSLP-Fc protein; TSLP-Fc-biotin
As to the kind of experiment: cell-based blocking FACS: antibody pre-mixed with biotin human TSLP-Fc; blocked binding to cell-surface TSLPR/IL7Ra on HEK293T-TSLPR/IL7R/STAT5-Luc 5C5 cells. The method, then: The cells were prepared following the instruction of lipofectamine 3000 transfection reagent (Thermo Fisher), by transfecting HEK293T cells (ATCC® CRL-11268) with pCMV-T-P plasmids inserted with TSLPR coding sequence between EcoRI and Xba1 sites and pCMV3-SP plasmids inserted with IL7Ra coding sequence between HindIII and Xba1 sites as well as pGL4.52 [luc2P/STAT5RE/Hygro](Promega).
The cells were harvested from cell culture flasks, washed twice and re-suspended in phosphate buffered saline (PBS) containing 2% v/v Fetal Bovine Serum (FACS buffer). […] Cells were washed twice with FACS buffer, and then added and incubated with 100 μL/well R-Phycoerythrin Streptavidin (1:500 dilution in FACS buffer, Jackson Immunoresearch, Cat #016-110-084) for 40 minutes at 4° C. in dark. Cells were washed twice and re-suspended in FACS buffer. Fluorescence was measured using a Becton Dickinson FACS Canto II-HTS equipment. Data was analyzed using Graphpad Prism and IC₅₀ values were reported.

Experiment [3] concerns the target T3, human IL4Rα expressed on 293F-IL4Rα cell surface (human, UniProt P24394 26-825).
T3 construct: whole, on cells; also called human IL4Rα-expressing cells; cell surface IL4R
As to the kind of experiment: cell-based blocking FACS on 293F-IL4Rα cells; blocked ligand biotin human IL4. The method, then: Then, 1×10⁵ cells per well were incubated in 96 well-plates in 100 μL of serially diluted bispecific antibodies, the positive controls or negative control (starting at 100 nM with a 5-fold serial dilution) in FACS buffer for 40 minutes on ice. […] The plates were washed twice with FACS buffer, and then added and incubated for 40 minutes at 4° C. in dark with 100 μL/well R-Phycoerythrin Streptavidin (1:500 dilution in FACS buffer, Jackson Immunoresearch, Cat #016-110-084). Cells were washed twice and resuspended in FACS buffer. Fluorescence was measured using a Becton Dickinson FACS Canto II-HTS equipment. Data was analyzed using Graphpad Prism and IC₅₀ values were reported.

Experiment [4] concerns the target T1, recombinant human IL4Rα-his. As to the kind of experiment: competitive ELISA: coated human IL4Rα-his, antibody titrated; blocked ligand biotin human IL4. The method, then: Briefly, 100 μL human IL4Rα-his proteins (prepared in-house, IL4Rα of SEQ ID NO: 33 with C-terminal His tag) were coated on 96-well micro plates at 2 μg/mL in PBS overnight at 4° C. The next day, plates were washed with wash buffer (PBS+0.05% w/v Tween-20, PBST), and blocked with 5% w/v non-fatty milk in PBST for 2 hours at 37° C. Plates were then washed again using wash buffer. Serially diluted bispecific antibodies or the controls (starting at 100 nM with a 5-fold serial dilution) in 2.5% w/v non-fatty milk in PBST, 100 μL per well, were added to the IL4Rα bound plates, and incubated at 37° C. for 40 minutes. […] Plates were washed again using wash buffer. Thereafter, the plates were added with 100 μL/well of streptavidin conjugated HRP (1:10000 dilution in PBST buffer, Jackson Immunoresearch, Cat #016-030-084) and incubated for 40 minutes at 37° C. Plates were washed again using wash buffer. Finally, TMB was added and the reaction was stopped using 1M H₂SO₄, and the absorbance was read at 450 nm. Data was analyzed using Graphpad Prism and IC₅₀ values were reported.

The target in experiment [5] is T4, recombinant human TSLP-his (human, UniProt Q969D9 29-159, biotin-labeled in the ELISAs).
T4 construct: In-house made; not shown: His tag at the C-terminus
Briefly: SPR Biacore; TSLP-his amine-coupled to CM5 chip, antibody as analyte; 1:1 Langmuir fit. The method, then:
Un-reacted moieties on the biosensor surface were blocked with ethanolamine. Then, serially diluted purified bispecific antibodies and the controls (2-fold serial dilution in HBS-EP⁺ buffer starting at 100 nM) were respectively flowed onto the chip at a flow rate of 30 μL/min. The antigen-antibody association kinetics was followed for 4 minutes and the dissociation kinetics was followed for 13 minutes.

Experiment [6] has as its target T3, human IL4Rα expressed on 293F-IL4Rα …. As to the kind of experiment: flow cytometry on 293F-IL4Rα cells, PE anti-human IgG Fc. How it is done:
Cells were washed twice with FACS buffer, and added with 100 μL/well R-Phycoerythrin AffiniPure Goat Anti-Human IgG, Fey fragment specific (1:1000 dilution in FACS buffer, Jackson Immunoresearch, Cat #109-115-098). Following an incubation of 40 minutes at 4° C. in dark, cells were washed three times and resuspended in FACS buffer. Fluorescence was measured using a Becton Dickinson FACS Canto II-HTS equipment. Data was analyzed using Graphpad Prism and EC₅₀ values were reported.
In general terms: A flow cytometer gives signals particle by particle.

For experiment [7], the target named is T1, recombinant human IL4Rα-his. Briefly: capture ELISA: antibody captured on anti-human IgG Fc F(ab')2, biotin human IL4Rα-his, SA-HRP. How it is done: Briefly, 96-well plates were coated with 2 μg/mL AffiniPure F(ab′)₂ Fragment Goat Anti-Human IgG, Fey fragment specific (Jackson Immuno Research, Cat #109-006-008) in PBS, 100 μL/well, overnight at 4° C. Plates were washed once with wash buffer (PBS+0.05% w/v Tween-20, PBST) and then blocked with 200 μL/well blocking buffer (5% w/v non-fatty milk in PBST) for 2 hours at 37° C. […] After a final wash, plates were incubated with 100 μL/well ELISA substrate TMB (Innoreagents, Cat #TMB-S-002). The reaction was stopped in 10 minutes at 25° C. with 50 μL/well 1M H₂SO₄, and the absorbance was read on a microplate reader using dual wavelength mode with 450 nm for TMB and 630 nm as the reference wavelength. Data was analyzed using Graphpad Prism and EC₅₀ values were reported.

For experiment [8] the target is unchanged. As to the kind of experiment: SPR Biacore T200; antibody captured on anti-human IgG CM5 chip, IL4Rα-his as analyte; 1:1 Langmuir fit. How it is done:
The goat anti-human IgG (GE healthcare, Cat #BR100839, Human Antibody Capture Kit) was covalently linked to a CM5 chip (carboxy methyl dextran coated chip) via primary amines, using a standard amine coupling kit provided by Biacore (GE healthcare, Pittsburgh, PA, USA). Un-reacted moieties on the biosensor surface were blocked with ethanolamine. Then, purified bispecific antibodies of the disclosure at the concentration of 66.67 nM and the controls at 10 μg/mL, were flowed onto the chip at a flow rate of 10 μL/min. Then, serially diluted recombinant human IL4Rα-his (in house made, IL4Rα of SEQ ID NO: 33 with His tag at C-terminus) in HBS EP buffer (provided by Biacore) was flowed onto the chip at a flow rate of 30 μL/min. The association and dissociation curves were fit to a 1:1 Langmuir binding model using BIAcore evaluation software.

Some results are limits rather than exact numbers.

B1: BSI-502-006 (bispecific antibody, human IgG1, kappa)
heavy: QVQLVQSGAEVKKPGASVKVSCKASGYTFTTYWMHWVRQAPGQGLEWMGVIDPSDSDTTYNQKFKGRVTMTRDTSTSTVYMELSSLRSEDTAVYYCTRSLDGYYDYWGQGTLVTVSSASTKGPSVFPLAPSSKSTSGGTAALGCLVKDYFPEPVTVSWNSGALTSGVHTFPAVLQSSGLYSLSSVVTVPSSSLGTQTYICNVNHKPSNTKVDKKVEPKSCDKTHTCPPCPAPEAQGGPSVFLFPPKPKDTLYITREPEVTCVVVDVSHEDPEVKFNWYVDGVEVHNAKTKPREEQYNSTYRVVSVLTVLHQDWLNGKEYKCQVSNKALPAPIEKTISKAKGQPREPQVYTLPPSRDELTKNQVSLTCLVKGFYPSDIAVEWESNGQPENNYKTTPPVLDSDGSFFLYSKLTVDKSRWQQGNVFSCSVMHEALHNHYTQKSLSLSPGKGGGGSGGGGSDIQMTQSPSSLSASVGDRVTITCRTSENIYSYLAWYQQKPGKAPKFLVYNAKTLAEGVPSRFSGSGSGTDFTLTISSLQPEDFATYYCQHYYGPPTWTFGQGTKVEIKGGGGSGGGGSGGGGSGGGGSEVQLVESGGGLVQPGGSLRLSCAASGFTFSTYGMSWVRQAPGKGLVWVATINSNGGSTSYPDSVKGRFTISRDNAKNTLYLQMNSLRAEDTAVYYCARFFRFRNAMDYWGQGTLVTVSS
light: DIQMTQSPSSLSASVGDRVTITCRPTENIYSYLAWYQQKPGKAPKLLIYFARTLAEGVPSRFSGSGSGTDFTLTISSLQPEDFATYYCQHHYGTPWTFGGGTKVEIKRTVAAPSVFIFPPSDEQLKSGTASVVCLLNNFYPREAKVQWKVDNALQSGNSQESVTEQDSKDSTYSLSSTLTLSKADYEKHKVYACEVTHQGLSSPVTKSFNRGEC
notes: hu1C5F12E9-V8 IgG with an anti-IL4R scFv (VL-VH) at the C-terminus of the heavy chain; AQQ and YTE already stand in the entry
A word on the EC50: it is the concentration needed to bring the measured effect to its halfway point. A word on the IC50: it is the concentration at which inhibition is half-maximal. By Kd is commonly meant the free concentration of one partner at which half of the binding sites on the other are occupied at equilibrium, for simple one-to-one binding. One may read the koff as a measure of how fast the partners let go of each other. Usually kon stands for the rate constant with which the complex forms. In the case of B1, the EC50 in experiment [1] is 0.104 nM; in experiment [6] it was 0.458 nM; in experiment [7], 0.182 nM. In addition, the results for the 50% inhibitory concentration (IC50) in experiment [2], in experiment [3] and in experiment [4] were 1.13 nM, 0.326 nM and 0.38 nM, respectively. Further, the equilibrium dissociation constant (Kd) in experiment [5] was less than 0.0141 nM; in experiment [8], 4.88 nM. In addition, the dissociation rate constant (koff) in experiment [5] is less than 1e-05 s⁻¹; in experiment [8] it was 0.000244 s⁻¹. In addition, the kon turned out to be 710000 M⁻¹ s⁻¹ in experiment [5] and 50000 M⁻¹ s⁻¹ in experiment [8].
